Reference: patent US20230151109A1 (UCB, published 2023)

Legend:
[1] = target: T1, recombinant human CD9 long extracellular loop 2-human Fc fusion protein (10015-CD, R&D Systems) (human, UniProt P21926 112-195); assay: biolayer interferometry (Octet RED384), CD9 loop 2-Fc on AHC biosensors, Fab-Y 10 ug/mL
T1 construct: Bought protein; The parts are ordered as in the printed name; also called CD9-loop2; long extracellular loop 2 peptide; not shown: human Fc of the bought fusion protein
T1 sequence: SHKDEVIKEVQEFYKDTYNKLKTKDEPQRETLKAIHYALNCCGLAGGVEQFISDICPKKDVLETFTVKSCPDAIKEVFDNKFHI
Protocol: Seven different CD9 antibodies each providing unique functional activity with CD137, CD7 and HVEM antibodies in a bispecific combination were analysed for their ability to bind the long extracellular loop 2 of CD9. CD9 contains two extracellular loops: a short extracellular loop (loop 1: 34-55 in SEQ ID NO:1) and a long extracellular loop (loop 2: 112-195 in SEQ ID NO:1). We used biolayer interferometry to assess binding of our panel of CD9 Fab-Y antibodies (selected for ability to bind full-length CD9 expressed on cells) to the long extracellular loop 2 peptide, using the Octet® RED384 System (FortéBio) with anti-hIgG Fc Capture (AHC) Biosensors (FortéBio) at room temperature. Firstly, an array of 8 sensors was dipped in kinetics buffer (PBS 0.1%, BSA 0.02%, Tween 20) for 120 seconds to provide a baseline signal. Sensors were then moved to wells containing 200 μl of recombinant human CD9 long extracellular loop 2-human Fc fusion protein (10015-CD, R&D Systems®) at 2 μg/mL in kinetics buffer to immobilize the protein to the biosensor (100 seconds), followed by a second baseline step (180 seconds) in kinetics buffer to equilibrate the biosensors now coated with the CD9 long extracellular loop 2-human Fc fusion protein. No detachment of the peptide was observed during this step. […]

[2] = target: T2, full-length CD9 expressed on cells (human, UniProt P21926 2-228); assay: selection by binding to cells expressing full-length CD9; method not described
T2 construct: also called human CD9
T2 sequence: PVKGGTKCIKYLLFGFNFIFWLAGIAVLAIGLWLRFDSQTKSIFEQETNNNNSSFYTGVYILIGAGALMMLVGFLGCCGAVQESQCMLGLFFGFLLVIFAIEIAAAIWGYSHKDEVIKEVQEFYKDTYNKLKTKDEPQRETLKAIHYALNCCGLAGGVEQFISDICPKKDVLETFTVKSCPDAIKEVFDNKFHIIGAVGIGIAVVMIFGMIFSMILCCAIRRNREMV

B1: anti-CD9 Fab-Y antibody 7272 (Fab, V domains shown)
VH: QSLEESGGRLVTPGTPLTLTCTVSGFSLSSYAMGWVRQAPGKGLEWIGAIGSITATGYARWAKGRFSISKTSTTVDLKMTSPTTEDTATYFCAREIYVGSAYAFDIWGPGTLVTVSS
VL: AYDMTQTPASVEVAVGDTVTIKCQASQSISNYLAWYQQKPGQPPKLLIYLASTLASGVPSRFKGSGSGTEFTLTISDLECADAATYYCQQGYIDNVNKGFGGGTEVVVK
notes: Tested as Fab-Y: Fab fragment joined through a peptide linker at CH1 to the GCN4 peptide (clone 7P14P); also called VR7272
binding result [1]: binds
binding result [2]: binds
